What was measured:
blood glucose = assay: Blood glucose in swine after dosing; type: in vivo
Protocol: (§1) L-SOMA dosings were compared to subcutaneous or intramuscular dosings as positive controls. Using an endoscope, we placed L-SOMA devices into the stomachs of swine and allowed them to independently actuate. After 2 hours the devices were removed from the animal.

swine stomach = assay: Histology of swine stomach after L-SOMA injection; type: in vivo; conditions: swine stomach after L-SOMA epinephrine injection
Protocol: as §1

heart rate = conditions: swine; 0.24 mg; both intramuscular injection and L-SOMA groups
Protocol: as §1

[1] = In vivo swine pharmacokinetics after L-SOMA, subcutaneous or endoscopic gavage dosing
Protocol: In vivo swine experiments were performed in which L-SOMA devices loaded with either an inactivated GLP-1 receptor agonist or fast acting insulin were prepared. L-SOMA dosing experiments were compared to subcutaneous dosing experiments and experiments where swine were dosed with the liquid formulation into the stomach lumen. Using an endoscope, L-SOMA devices were placed into the stomachs of swine and allowed to independently actuate. After 2 hours the devices were removed from the animal. Time 0 corresponds to the time at which the device was placed in the stomach and not the time that the device actuated. The swine dosed were partially fasted but contained a layer of gastric fluid and food approximately the same height as the L-SOMA capsule.
as §1
Insulin and GLP-1 generally have limited ability to traverse the stomach lining for systemic uptake when administered without a permeation enhancer or physical permeation enhancing device.

[2] = Liquid formulation stability, two weeks at 40° C. and 75% relative humidity; type: physicochemical
Protocol: FIGS. 53A-53B show liquid formulation stability, according to one set of embodiments. Human Insulin (HI) and Semaglutide (Sema) formulations were placed inside of either an L-SOMA or a glass vial apparatus and were subjected to a 40° C. and 75% relative humidity environment for two weeks. (a) Purity loss and (b) high molecular weight protein (HMWP) formation were then measured. (Error=SD, n=3 device replicates, **P<0.01, ***P<0.001).
Additionally, the purity loss for the liquid formulation was higher than the purity loss for the solid formulation we previously reported using in the SOMA system. Optimization of the L-SOMA storage system and loaded liquid formulation will be required to ensure long term stability of the filled drug.

Compound: CNC[C@H](O)c1ccc(O)c(O)c1 [epinephrine]
- blood glucose change (blood glucose; 0.24 mg, both intramuscular injection and L-SOMA groups): abrupt rise
- H&E staining: necrosis or adverse effects elicited by the drug (swine stomach): no evidence of necrosis or adverse effects
- heart rate change (heart rate): abrupt rise
- uptake after endoscopic gavage (negative control) ([1]; in vivo): negligible uptake
- plasma exposure of drug observed after administration ([1]; swine, in vivo): ≤ 15 min

Compound: adalimumab
- uptake after endoscopic gavage (negative control) ([1]; in vivo): negligible uptake
- drug in blood plasma after dosing ([1]; in vivo, sc): at least 3 days

Compound: recombinant human insulin: recombinant human insulin, 1 mg liquid dose
- hypoglycemic onset (blood glucose; insulin 1 mg, L-SOMA (FIG. 47B) and subcutaneous (FIG. 47F)): immediate hypoglycemic onset
- high molecular weight protein formation, L-SOMA system versus glass vial system [2]: greater
- purity loss, L-SOMA system versus glass vial system [2]: greater
- bioavailability, range ([1]; swine, L-SOMA dosed, 1 mg, two hour sampling period, n=8): 25%-81%
- bioavailability, range ([1]; swine, dosed subcutaneously, insulin, n=3): 50.8%-66.2%

Compound: semaglutide
- high molecular weight protein formation, L-SOMA system versus glass vial system [2]: greater
- purity loss, L-SOMA system versus glass vial system [2]: greater

From patent publication US11771829B2, “Systems and methods for liquid injection” (Massachusetts Institute of Technology, priority 2019, dated 2023)
